Sequences and labels used below:
B1: S138A: modified NanR protein, Ser138 substituted with alanine (protein)
chain: MGSPKNLLVRLRSNMEPFSKKLRVVADYILENAHDVQFQTITDLARNTQTSEATVVRLCRDMGYKGYSDFRMALAVDLSQTESRQQNHIEGDICDVSAQSAVDSLQDTAKLIDRKSLARIVERVHQAEFIGCIGVGAASIVGRYLAYRLIRIGKKAIMFEDTHLAAMSASRSSQGDLWFAVSSSGSTKEVIHAAGLAYKRDIPVVSLTNINHSPLSSLSTEMLVAARPEGPLTGGAFASKVGALLLVDVLVNSLLESYPEYKDSVQETAEVVIPLMAN
B2: K240A: modified NanR protein, Lys240 substituted with alanine (protein)
chain: MGSPKNLLVRLRSNMEPFSKKLRVVADYILENAHDVQFQTITDLARNTQTSEATVVRLCRDMGYKGYSDFRMALAVDLSQTESRQQNHIEGDICDVSAQSAVDSLQDTAKLIDRKSLARIVERVHQAEFIGCIGVGASSIVGRYLAYRLIRIGKKAIMFEDTHLAAMSASRSSQGDLWFAVSSSGSTKEVIHAAGLAYKRDIPVVSLTNINHSPLSSLSTEMLVAARPEGPLTGGAFASAVGALLLVDVLVNSLLESYPEYKDSVQETAEVVIPLMAN
B3: E229L: modified NanR protein, Glu229 substituted with leucine (protein)
chain: MGSPKNLLVRLRSNMEPFSKKLRVVADYILENAHDVQFQTITDLARNTQTSEATVVRLCRDMGYKGYSDFRMALAVDLSQTESRQQNHIEGDICDVSAQSAVDSLQDTAKLIDRKSLARIVERVHQAEFIGCIGVGASSIVGRYLAYRLIRIGKKAIMFEDTHLAAMSASRSSQGDLWFAVSSSGSTKEVIHAAGLAYKRDIPVVSLTNINHSPLSSLSTEMLVAARPLGPLTGGAFASKVGALLLVDVLVNSLLESYPEYKDSVQETAEVVIPLMAN
B4: S182A: modified NanR protein, Ser182 substituted with alanine (protein)
chain: MGSPKNLLVRLRSNMEPFSKKLRVVADYILENAHDVQFQTITDLARNTQTSEATVVRLCRDMGYKGYSDFRMALAVDLSQTESRQQNHIEGDICDVSAQSAVDSLQDTAKLIDRKSLARIVERVHQAEFIGCIGVGASSIVGRYLAYRLIRIGKKAIMFEDTHLAAMSASRSSQGDLWFAVASSGSTKEVIHAAGLAYKRDIPVVSLTNINHSPLSSLSTEMLVAARPEGPLTGGAFASKVGALLLVDVLVNSLLESYPEYKDSVQETAEVVIPLMAN
B5: H163A: modified NanR protein, His163 substituted with alanine (protein)
chain: MGSPKNLLVRLRSNMEPFSKKLRVVADYILENAHDVQFQTITDLARNTQTSEATVVRLCRDMGYKGYSDFRMALAVDLSQTESRQQNHIEGDICDVSAQSAVDSLQDTAKLIDRKSLARIVERVHQAEFIGCIGVGASSIVGRYLAYRLIRIGKKAIMFEDTALAAMSASRSSQGDLWFAVSSSGSTKEVIHAAGLAYKRDIPVVSLTNINHSPLSSLSTEMLVAARPEGPLTGGAFASKVGALLLVDVLVNSLLESYPEYKDSVQETAEVVIPLMAN
B6: H163L: modified NanR protein, His163 substituted with leucine (protein)
chain: MGSPKNLLVRLRSNMEPFSKKLRVVADYILENAHDVQFQTITDLARNTQTSEATVVRLCRDMGYKGYSDFRMALAVDLSQTESRQQNHIEGDICDVSAQSAVDSLQDTAKLIDRKSLARIVERVHQAEFIGCIGVGASSIVGRYLAYRLIRIGKKAIMFEDTLLAAMSASRSSQGDLWFAVSSSGSTKEVIHAAGLAYKRDIPVVSLTNINHSPLSSLSTEMLVAARPEGPLTGGAFASKVGALLLVDVLVNSLLESYPEYKDSVQETAEVVIPLMAN
B7: S184A: modified NanR protein, Ser184 substituted with alanine (protein)
chain: MGSPKNLLVRLRSNMEPFSKKLRVVADYILENAHDVQFQTITDLARNTQTSEATVVRLCRDMGYKGYSDFRMALAVDLSQTESRQQNHIEGDICDVSAQSAVDSLQDTAKLIDRKSLARIVERVHQAEFIGCIGVGASSIVGRYLAYRLIRIGKKAIMFEDTHLAAMSASRSSQGDLWFAVSSAGSTKEVIHAAGLAYKRDIPVVSLTNINHSPLSSLSTEMLVAARPEGPLTGGAFASKVGALLLVDVLVNSLLESYPEYKDSVQETAEVVIPLMAN
B8: K240M: modified NanR protein, Lys240 substituted with methionine (protein)
chain: MGSPKNLLVRLRSNMEPFSKKLRVVADYILENAHDVQFQTITDLARNTQTSEATVVRLCRDMGYKGYSDFRMALAVDLSQTESRQQNHIEGDICDVSAQSAVDSLQDTAKLIDRKSLARIVERVHQAEFIGCIGVGASSIVGRYLAYRLIRIGKKAIMFEDTHLAAMSASRSSQGDLWFAVSSSGSTKEVIHAAGLAYKRDIPVVSLTNINHSPLSSLSTEMLVAARPEGPLTGGAFASMVGALLLVDVLVNSLLESYPEYKDSVQETAEVVIPLMAN
B9: R60L: modified NanR protein, Arg60 substituted with leucine (protein)
chain: MGSPKNLLVRLRSNMEPFSKKLRVVADYILENAHDVQFQTITDLARNTQTSEATVVRLCLDMGYKGYSDFRMALAVDLSQTESRQQNHIEGDICDVSAQSAVDSLQDTAKLIDRKSLARIVERVHQAEFIGCIGVGASSIVGRYLAYRLIRIGKKAIMFEDTHLAAMSASRSSQGDLWFAVSSSGSTKEVIHAAGLAYKRDIPVVSLTNINHSPLSSLSTEMLVAARPEGPLTGGAFASKVGALLLVDVLVNSLLESYPEYKDSVQETAEVVIPLMAN
B10: R57L: modified NanR protein, Arg57 substituted with leucine (protein)
chain: MGSPKNLLVRLRSNMEPFSKKLRVVADYILENAHDVQFQTITDLARNTQTSEATVVLLCRDMGYKGYSDFRMALAVDLSQTESRQQNHIEGDICDVSAQSAVDSLQDTAKLIDRKSLARIVERVHQAEFIGCIGVGASSIVGRYLAYRLIRIGKKAIMFEDTHLAAMSASRSSQGDLWFAVSSSGSTKEVIHAAGLAYKRDIPVVSLTNINHSPLSSLSTEMLVAARPEGPLTGGAFASKVGALLLVDVLVNSLLESYPEYKDSVQETAEVVIPLMAN

The subject of the first experiment is PnanTp. As to the kind of experiment: E. coli dual plasmid system (luciferase reporter fused to PnanTp). The following applies: BSE1201 host, arabinose, presence or absence of Neu5Ac. It counts as cell-based. Here is the method:
E. coli strains were co-transformed with a luciferase reporter plasmid (pBS0915) and one of the pNB-series of plasmids that express NanR. Cells were cultured overnight and then diluted into the appropriate fresh media (supplemented M9 in FIG. 3; LB in FIG. 4) containing arabinose (0.002%), and incubated at 37° C. until cells grew to early exponential phase. Relative luminescence unit (RLU) was calculated by dividing the luminescence by the A600, as described previously. For screening ligand-sensing residues, the BSE1201 strain (ΔaraBAD ΔnanE) was used as the host cell instead of DH5α to ensure that the arabinose was not used as a carbon source and that ManNAc-6P generated from Neu5Ac was accumulated in the cell.
To assess the importance of the interaction between ManNAc-6P and NanR to regulation of the nan genes, the residues involved in ligand-binding were mutated and the impact on NanR function was investigated using an E. coli dual plasmid system. Cells were cotransformed with plasmids containing a luciferase reporter gene fused to the NanR-binding nanT(PSL)AR promoter (PnanTp), and wild-type or mutant NanR, and then incubated in the presence of arabinose and the presence or absence of Neu5Ac.
The simplest helix-turn-helix (HTH)-containing DBD includes three core helices; the HTH domains can form tetra-helical bundle, winged helix, and ribbon-helix-helix type configurations. The DBD of NanR is composed of a six-helix bundle, which is not the archetypal conformation of HTH-containing domains; therefore, the recognition helix required for DNA-binding could not been determined. […] The importance of these residues to DNA-binding was examined using an E. coli dual plasmid system described in Example 2. The repressive effect of wild-type NanR on activity of PnanTp was abolished by the R57A, R57L, R60A, and R60L point mutations (FIG. 4c).
Background: In a reporter assay the amount or activity of a reporter protein is the signal.
Take B1: the “luciferase activity (PnanTp) after addition of Neu5Ac” value (“luciferase activity (PnanTp)” below) is on record as “unable to activate PnanTp”.
As for B2, the “luciferase activity (PnanTp)” value is on record as “unable to activate PnanTp”.
Turning to B3, the “luciferase activity (PnanTp)” value is reported as “unable to activate PnanTp”.
As to B4, the “luciferase activity (PnanTp)” value was “unable to activate PnanTp”.
Turning to B5, the “luciferase activity (PnanTp)” value is reported as “unable to activate PnanTp”.
For the molecule B6, the “luciferase activity (PnanTp)” value is on record as “unable to activate PnanTp”.
Consider B7, for which the “luciferase activity (PnanTp)” value was “as active as wild-type NanR”.
On to B8, for which the “luciferase activity (PnanTp)” value was “unable to activate PnanTp”.

Still in this experiment, the particulars now being: point mutations in DBD.
Turning to B9, the “repressive effect of NanR on activity of PnanTp” value is reported as “abolished”.
Same read-out and setting: to B10 belongs “abolished”.

The values above are taken from patent publication US9482669B2, “Crystal structure of the NanR and ManNAc-6P complex, and uses thereof” (priority 2013, dated 2016).
